{"source": "the nanobody polyreactivity screen of Harvey et al. (2022)"}
{"assay": "yeast display, Sf9 membrane polyspecificity reagent, FACS + sequencing; frameworks hold sequencing errors", "outline": "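Polyreactivity labels are assigned by the sorting gate from which each nanobody was recovered. The gates were low and high (top ~1%), set on anti-HA fluorescence for expression and streptavidin fluorescence for reagent binding. Before sorting, galactose-induced (36–48 hours) yeast display cells were stained for 1 hour at 4 °C with 10% biotinylated, detergent-solubilized Sf9 membrane reagent.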"}
{"sequence": "QVQLVESGGGLVQAGGSIRLTCAASGTIFPYYAKGWYRQAPGKERELVAAISDSGDSTYYADSVKGRFTISRDNAKNTVYLQMNSLKPEDTAVYYCAADQTSSYYDPWGDYWGQGTQVTVSS", "polyreactivity (PSR sort gate)": "low polyreactivity"}
{"sequence": "QVQLVESGGGLVQAGGSLGLSCAASGFIFYAYVMGRYRQAPGKERELVAAISRNGGSTYYADSVKGRFTISRDNAKKSVYLQMNSLKPEDTAVYYCAALSYYRYSQEDDYWGQGTQVTVSS", "polyreactivity (PSR sort gate)": "high polyreactivity"}
{"sequence": "QVQLVESGGGLVQAGGSLGLSCAASGRIFSRNAMGWYRQATGKEREFVAAISRRGTSTYYADSVKGRFTISRDNAMNTVYLQMNSLNPESTAVYYCNVDQWASQRYSRYDYWGQGTQVTVSW", "polyreactivity (PSR sort gate)": "high polyreactivity"}
{"sequence": "QVQLVESGGGLVQAGGSLGLSCAASGRTFSQYAMGWYRQAPGKERELVAAISWSGGYTYYADSVKGRFTISRDNAKNTVYLQMNSLKPEDTAVYYCAAVGKGSARSSYPVLYDYWGQGTQVTVSS", "polyreactivity (PSR sort gate)": "low polyreactivity"}
{"sequence": "QVQLVESGGGLVQAGGSLGLSCAASGRTFYRNAMGWYRQAPGIERELVAPITNGGRTYYADSVKGRFTISRDNAKNTVNLQMNSLKPEDTAVYYCNALDAKLSEYEYWGQGTEVTVSS", "polyreactivity (PSR sort gate)": "low polyreactivity"}
{"sequence": "QVQLVESGGGLVQAGGSLGLSCAASGSIFRGYAMGWYIQAPGKERELVAAITSSGGSTNYADSVKGRFTISRDNAKNTVYLQMNSLKPEDTAVYYCAAGVIREKYYIWSDYEYDYWGQGTQVNVSS", "polyreactivity (PSR sort gate)": "low polyreactivity"}
{"sequence": "QVQLVESGGGLVQAGGSLGLSCAASGSTFAGNTMGWYRQAPGKERELVATITRGDSTNYADSVKGRFTISRDNAKNTVYLQMNSLIPEDTAVYYCAAVGRRRTTVGRYVRMDYWGQGTQVTVSS", "polyreactivity (PSR sort gate)": "low polyreactivity"}
{"sequence": "QVQLVESGGGLVQAGGSLGLSCAASGYIFGIYAMGWYRQAAGKERELVAAISSDSTYYADSVKGRFTISRDNAKNTVYLQMNSLKPEDTAVYYCAPYWFNQDYEFEYWGQGTQVTVSS", "polyreactivity (PSR sort gate)": "high polyreactivity"}
{"sequence": "QVQLVESGGGLVQAGGSLHLSCAASGFTFGRYAMGWFRQAPGKERELVAAISRRGGSTYYADSVKGRFTISRDNANNTVYLQMNSLKPEDTAVYYCNVDKYRIVGFHSPYDYWVQGTQVTVSS", "polyreactivity (PSR sort gate)": "high polyreactivity"}
{"sequence": "QVQLVESGGGLVQAGGSLLLICAASGRTFPYNAMGWYRQAPGKEREFVAAISVGGGSTYADSVKGRFTISRDNAKNTVYLQMNSLKPEDTAVYYCAAAYTKLYYYWGQGTQVTVSS", "polyreactivity (PSR sort gate)": "low polyreactivity"}
{"sequence": "QVQLVESGGGLVQAGGSLLLSCAASGFIFGLNAMGWYRQAPGKERELVAAIRSASSTNYADSVKGRFTISRDNAKNTVYLQMNSLKPEDTAVYYCAAEYVTYQQGFWGYDYWGQGTQVTVSS", "polyreactivity (PSR sort gate)": "low polyreactivity"}
{"sequence": "QVQLVESGGGLVQAGGSLLLSCAASGGTFRNNAMGWYRQAPVKERELVAAISSSGTSTYYADSVKGRFTISRDNVKNTVYLQMNSLKPEDTAVYYCNADALGSPWWDHMDYWGQGTQVTVSS", "polyreactivity (PSR sort gate)": "low polyreactivity"}
{"sequence": "QVQLVESGGGLVQAGGSLLLSCAASGGTFYYYAMGWYRQAPGKERELVASISSRGGSTYYADSVKGRFTISRDNAKNTVYLQMNSLKPEDTAVYYCAARSLYSGFGYWGQGTQVTVSS", "polyreactivity (PSR sort gate)": "high polyreactivity"}
{"sequence": "QVQLVESGGGLVQAGGSLLLSCAASGITFGVYAMGWYRQAPGKERELVAAISVNGGSTYYADSVKGRFTISRDNAKNTVYLQMNSLNPQDTAVYSCAADVLYYIDDDSIIEYDYWGQGTQVTVSS", "polyreactivity (PSR sort gate)": "low polyreactivity"}
{"sequence": "QVQLVESGGGLVQAGGSLLLSCAASGITFSYYAMGWYRQAPGKERELVAAISRTGTSTYYADSVKGRFTISRDNAKNTVYLQMKSLKPEDTAVYYCAAVPRHPYHDKYDYWGQGTQVTVSS", "polyreactivity (PSR sort gate)": "high polyreactivity"}
{"sequence": "QVQLVESGGGLVQAGGSLLLSCAASGITSYYYAMGGYRQAPGKERELVAAITRGGRTKYADSVKGRFTISRDNAKNTVYLQMNSLKPEDTAVYYCAADVWGQGTQVTVSS", "polyreactivity (PSR sort gate)": "high polyreactivity"}
{"sequence": "QVQLVESGGGLVQAGGSLLLSCAASGLIFDPYAMGWYRQAPGKERELVADISSGGSTNYADSVKGRFTISRDNAKNTVYLQMNSLKPEDTAVYYCNKTIILDGYYFSLTLYDSWGQGTQVTVSS", "polyreactivity (PSR sort gate)": "low polyreactivity"}
